Assay [1] addresses T1, receptor for HCG in plasma membranes from bovine corpora lutea (Bos taurus, UniProt Q28005).
T1 construct: 100 g. of tissue from approximately 25 large corpora lutea; from tissue; host or cells: bovine corpora lutea of early pregnancy (slaughterhouse), plasma membrane fraction from zonal sucrose gradient
Briefly: Radioreceptorassay of HCG: competition with 125I-HCG for plasma membrane receptor. It is filed as binding. The procedure: All procedures in the preparation of plasma membranes were carried out in an ice bath or at 4° C. Fresh bovine ovaries from early pregnancy (first trimester: fetus length from crown to rump up to 22 cm.) were obtained from the slaughter house and stored in liquid nitrogen until processed. In a typical experiment, 100 g. of tissue from approximately 25 large corpora lutea were cut into small pieces with a sharp steel blade and ground in 500 ml. of 10 mM. Tris-HCl buffer of pH. 7.8 containing one mM. of MgCl2, one MM. dithiothreitol, 10,000I.U. of Trasylol (FBA Pharmaceuticals) per liter and 0.25 M. sucrose. The homogenate was filtered through two layers of cheese cloth and the larger particles were reprocessed in 500 ml. of the buffer. […] The homogenate was centifuged at 650 xg. for 20 minutes in a Sorvall refrigerated centrifuge (RC B, Rotor GSA) to remove intact cells, cell debris and nuclei. The 650 × g. supernatant was again centrifuged at 13,000 g. for 20 minutes in the same centrifuge. […]
In Table I, the incubation was performed for 30 minutes at 37° C. in a Dunaboff water bath shaker. […] The supernates were aspirated and the pellets were counted in a Packard Autogamma counter with a 51% efficiency for I^125. The standard curves and the hormonal concentration in the plasma samples were calculated by a time sharing IBM computer using logit-log transformations.

In assay [2] the target is T2, PRL receptor sites in ovarian homogenates (Bos taurus, UniProt Q28172).
T2 construct: from tissue; host or cells: ovarian homogenate (bovine, from the preparation section)
T2 sequence (Q28172 25-581): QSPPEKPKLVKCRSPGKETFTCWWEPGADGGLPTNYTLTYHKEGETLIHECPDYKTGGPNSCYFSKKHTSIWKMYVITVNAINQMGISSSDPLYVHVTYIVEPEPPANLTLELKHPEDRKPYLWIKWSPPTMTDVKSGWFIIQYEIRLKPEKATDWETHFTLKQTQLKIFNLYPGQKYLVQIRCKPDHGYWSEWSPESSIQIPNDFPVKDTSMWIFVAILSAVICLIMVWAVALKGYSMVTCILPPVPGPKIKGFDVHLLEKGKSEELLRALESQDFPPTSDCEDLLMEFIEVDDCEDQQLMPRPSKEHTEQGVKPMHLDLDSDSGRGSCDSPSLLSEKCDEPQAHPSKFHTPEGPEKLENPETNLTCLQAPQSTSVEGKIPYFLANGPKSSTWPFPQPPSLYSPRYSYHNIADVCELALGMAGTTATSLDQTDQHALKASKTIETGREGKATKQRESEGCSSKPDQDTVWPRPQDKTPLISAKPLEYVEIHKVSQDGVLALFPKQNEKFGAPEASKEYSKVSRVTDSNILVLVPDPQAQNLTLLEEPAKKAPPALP
In words: Specificity of 125I-hPRL binding: displacement by unlabeled hormones. More on the design: species or system bovine. The procedure:
A reaction mixture containing 100 ul of incubation buffer containing 10 IU Trasylol (FBA Pharmaceuticals, New York, New York), 50 ul of receptor preparation equivalent to 1-300 ug of protein and 100 ul of ^125 I-hPRL (SA; 50-70 uCi/ug) were incubated at 37° C. for 2 hours in the absence and in the presence of 1 ug of unlabeled bovine PRL. At the end of incubation, 1 ml of ice cold buffer was added to all tubes and tubes were centrifuged at 5,000 rpm for 20 minutes. The supernatants were aspirated. The pellets containing receptor bound hormones were counted in an Automamma counter with a 51% efficiency for ^125 I (Packard Instrument Company, Downers Grove, Illinois). Specific binding was calculated as the difference of binding in the tubes with and without unlabeled PRL.

T1 sequence (Q28005 27-701): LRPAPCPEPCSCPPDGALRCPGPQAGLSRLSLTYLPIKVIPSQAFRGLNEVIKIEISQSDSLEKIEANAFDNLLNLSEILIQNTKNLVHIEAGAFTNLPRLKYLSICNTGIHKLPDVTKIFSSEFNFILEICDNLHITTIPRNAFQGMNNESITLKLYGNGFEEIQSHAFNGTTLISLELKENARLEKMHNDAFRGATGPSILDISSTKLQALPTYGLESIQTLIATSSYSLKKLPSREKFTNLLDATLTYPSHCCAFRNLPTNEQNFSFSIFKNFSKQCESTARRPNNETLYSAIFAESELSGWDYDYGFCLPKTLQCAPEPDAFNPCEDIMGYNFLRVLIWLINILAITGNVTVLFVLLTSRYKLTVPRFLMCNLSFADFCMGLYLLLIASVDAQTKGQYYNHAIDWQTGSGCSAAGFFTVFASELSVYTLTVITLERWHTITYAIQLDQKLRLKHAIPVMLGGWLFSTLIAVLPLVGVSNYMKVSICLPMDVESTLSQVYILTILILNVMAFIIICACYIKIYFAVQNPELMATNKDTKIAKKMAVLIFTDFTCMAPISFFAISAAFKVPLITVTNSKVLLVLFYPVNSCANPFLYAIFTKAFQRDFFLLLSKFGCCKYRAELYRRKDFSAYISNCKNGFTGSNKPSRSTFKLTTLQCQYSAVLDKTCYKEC

For “LH from rat: sample of luteinizing hormone from rat”, the “logit-log line of radioreceptorassay response compared with HCG” value in assay [1] (same system, different concentrations) is given as “parallel to the line for HCG”.
As to human growth hormone [hGH], the “potency in displacing receptor-bound 125I-hPRL relative to hPRL” value in assay [2] was 0.5-1 % of hPRL. Besides, in assay [2] (various concentrations), the “displacement of 125I-hPRL bound to receptor protein” value is “capable of displacing”. In addition, in assay [1] (FIG. 2 legends: TSH, HGH, PRL are plasma from hypothyroid, acromegalic, postpartum lactation subjects), the “cross-reaction in the radioreceptorassay of HCG (FIG. 2)” value is recorded as “no cross-reaction”.

For the origin of these results see patent US4016250A, “Method for testing for pregnancy” (Cornell Research Foundation, Inc., priority 1974, dated 1977).
